# In the domain aggregation screens of Martell et al. (2025):
# Assay: soluble fraction after stress (log2 fold change); higher = more stays soluble; pooled small domains, quantitative proteomics
# Conditions: stress: 50 degC
# How it was run: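 Each library was heated to 50°C as a stress step. The libraries, made up of small protein domains, were pooled and analysed at high throughput by quantitative proteomics. The reported value is the base-two logarithm of the fold change in each protein's soluble amount after stress, taken as a measure of aggregation propensity. The higher the value, the more protein stays in solution.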
row,Sequence,soluble fraction (log2)
1,HMPANVELLRTFTNKTGTKIKARIVAVSDNKVKLIRDDSKKFIVPIDSLSEEDQKYLKDWIANEVGEQ,0.0498
2,HMEMLQENIRNLRKAKGWSQEELAIKLNVVRQTVSKWEKGLSVPDSQMLIRIADELDTTVAILLG,-0.246
3,HMQVEMVLSQEAHEWLLQRGFIPEYGAREMDRVIAAHLKPLLMREILFGTLKAGGKVRVQVENGALKLQP,-1.44
4,HMTNLKALRESKGVSQQTVADYLGITRQAYGNYETGKRQADYAALLRLAAFFGVSVDALLQP,-0.299
5,HMDENMQRYNTMEEIKKEFPYAEDTVRKLIAMGAIRGGGKVDANGDPADMDLSRDMLRMMVFNDRAGAYG,0.544
6,HMDATFKVRVSVPDLNIRSGPGTNYAATGRFTGVGVFTITAVQSGQGSSSGWGKLKSGAGWIALDYAKR,-2.39
7,HMKSEMYIDLSNALLKMSERDKELLTYRYTMEMSSKEISQITGIKESNVNSYIRRAREKLLKIFNAMNK,-3.04
8,HMDGMRASDMVRAALAGAGKTQKELAEHMGWTPQNLSGRLKNNSLTFDELSKALHFAGYEVSMSDANGAG,0.0567
9,HMNPETLTNGSVVKMSKANLSDELIIDMINNSPARFDLSSGALRSLEGEGVSKAVIESMKRATSG,0.191
10,HMRRTEKEIEQDVMRAIATIISEKGISSVTIKEVSNLSKTDVIVLERRFKNDEGLIKAYTSQ,-0.166
11,HMDGKTALQEIVASSGWSPPEYKVSESGPDHDKDFVAYAIVNGVAYPEGHGKSKREAEQVAARIAFEALSK,-0.18
12,HMSKQIEVPDVTDMTVSDAIDVLQDKGFVVSDEQKEVASSEIEEGRVVRTSPAVGSKRKDGTVVTLYVSI,0.045
13,HMPKHHIESVIPENFAGERLDKVLAVLWGTFSRAQLTRWIRDGSLLLDGHKVKPNTKVDGSEKIVLQAEVA,-0.891
14,HMQTQVEVLVKYVLEDGTVYKEDKVSADIGAILDSGDLPMLSNDMKFIDDFLFYEVKESDNVIERKVAKLV,0.114
15,HMSRTLLVYVTGAVRQPGVYELPEGSRFFDAVKAAGDVLPYAVMEDINMAEPLSDGMKIHIPLDPEQ,-0.125
16,HMGKMTSTLGVHIAAYRKEHGETVAQFASRSGVSVSSIRRIESGISDPSADLVWKISRHMGMTMDDLFKKM,-3.87
17,HMNQPRQRKVIFELIDERNALERVLMHFAHLEKQVEKIDERKYQVTLYYDKEDETEILIRVLSFG,-1.15
18,HMWVETITTKAGITKYKFQERYTDTYSGKTKRVSVTYTSNSRQAYKLAQAELQKKIDLATNTD,-0.849
19,HMEDHMVVFGKGGRITRLPDKATVLEYLDAANFFASRSSVVKVNGKLASLDQTLRDGDSIEIVD,-0.183
20,HMTSLGLEGLVNTTAIATSDLRPSGWALAGERKIFVVSEGEFIDNGDKIRILTVDGNRIVVRKETNK,-0.051
21,HMVDPELFIWVESSKEPVYHLAYKIELFVHSTDPQDDVPVHRWQVFVDAHNGNILDKFDEVR,-0.159
22,HMNALNDLESKIFEEVVKAPEIIMNMTIREFASTVHASPTTIVRMTHKLGFSGWNELKTYLQKQKHQIS,-1.02
23,HMIPNPMTDRELEVLGLLASGKTYKQVARALDLSQSTVRNHLHNVYHKLNVVDRAQAVIVSRENGW,-0.289
24,HMIEDMQQYIKEIRQMVSGRLDMTRNLEDEEIRDTIAELVAEESRKQYMTLTEKREVIEGVFNSMR,-0.0273
25,HMADGEWAEMQRQLTAAGLLVVGRAAQERIQRLSDISPLIEAAQRSNVVMLSERTVDEVLTLVPT,-0.18
26,HMHSVIALTIPADYAGLRLDQALAKLLPNWSRSRLQTWIAENRVILDGQITTIKQKVWGNELIQISPQD,-1.45

row,Sequence,soluble fraction (log2)
1,HMSGPDGLTEREIEVLRLLASGLSNRAIGERLYISTNTAANHVRSILLKTGAANRTQAAMYAADHEML,-1.37
2,HMFTYEETIGKSADVYLTIPALKAGKGKIIISVRGSVHELDAMTNNAEKISTGAVVKIVRIEHGNILLVEN,-1.63
3,HMGGKWSMPIIYILSKGKMRFKELERSVEGINTRMLVKELKNMEANGIVTREVFPTVPPTVEYALT,-0.922
4,HMSFDENEALRKALDVFWEKGYDGTSLSDLTEAMGINKPSLYATFGNKDQLFLKAIEMYENR,-0.992
5,HMGVDIAEHDGQPAVSIRKGAAESVAQWVKDQGGTFPQEVEMTVQNVARAGGTPLVVARGRDVLGVIYLKD,0.0501
6,HMFVTFFHELKSAGVPVSLREYLTLMEAMDRDLASRRVEEFYYLARTALVKDERNLDKFDRVFGHVFKGL,-3.65
7,HMAGDVVVEVVGKVRDPQVVTLPKGSRVQDALEAAGGVKPGVNTTDQNLARLLVDGEQIRIGLSS,0.0918
8,HMGFEALRSRHRITAREMEVLQHMLAGRSNAEIGHTLGLSERTVKTHITSIFNKLGVDSRAQLGYMLK,-0.498
9,HMKVSRTAVKLHHANAVEVAKKLQPLFVVGDVQIEPVKDAGIILLKGPASTLADLRESIVQMDHTA,-0.0461
10,HMNDSGIIGVVINDHEKYEGHVLEDGFISSSLSALSREIDVAGYFMMVKTVVYEGFFQELKGIGNV,-0.00726
11,HMETINERVNSIIEREGHTVATFAKKIGVPWTTIKNIVSGRNAPSYDIMVKIINAVDWVDANYLVMG,-1.98
12,HMSFFNGNQMKILRKKLQLNQEEMGEKLGIKKSYVSQLENNRKEITEEIDQILQELEQEYQDKM,-0.323
13,HMPTLSKVGSQGEEVRQIQTKLKNWGYLNDRVDGIYGPKTRDAVIWFQKKNGLVADGIAGPATLKAMGIFT,0.0925
14,HMKWGDTPTVEVPNLIGMKKKDLQTQLVDLKLDISGDGEKVIKQSPEAGAKVKEGSKIRIYFG,-0.0661
15,HMIHQPNNETTRNLIAGVVKKSLSVWETRVQVDGVDVTTAKDNLAEVHINIRYRLRHNQTPASLGLRLNLG,0.00106
16,HMSKIRTFRVKTVAVDQAYQVLKDYSPIKISTESNAVIIDLDESKTPAEIAGYLEKNGIKVDNIEVIAESE,0.179
17,HMKQAVESAEAIFEEIARIKKLSLVKSEAEEIARKTGLQKFTIASQLLKNQHAYEMDESEIASLWDKKI,0.0237
18,HMLNKRQAEILAEVSRLKEITPSELYKLQPNVSSRTLRRDMDVLVNKGLVSQDGSTKSTKYTYL,0.23
19,HMGLIDNLTRIMEKKNISAYQLEKAGIVKQTTFTSWKKGTQPALDKIIKIMQYIEVTPNELFGY,-1.39
20,HMTTQERVSYSAFINDVETGRVAKVVISGYTIEGTRTNNSSFVTERPYGVDSNLSEVLMQNSVSIEGKA,-0.129
21,HMSQSLSGWAAKDLEVKSGADASYRTVGRLPKGSKVSGKIINGYLHIEFDGSMRYVPVSGISKTE,-0.134
22,HMSSPEAAEVQRLLKDGQHVQALKIIDESLARNPKDPQMRFRRGVALSMLDRKNEALAVFQKLVED,-0.043
23,HMKKLPDDANDIIERVSSRLAQKFRFGYHTIDDMKQQAALFAWEGIYDSWDDSRPLENFLWIHVRNRLYN,-0.00948
24,HMNKNLQLMINEIKKGLASEDIETRKKSVLMLSRIDAPEIIQVLEPLKDDSSEEIRKISSKIISVLSKKYT,0.168
25,HMNTELSPKVWDVVQEFILYRKEIKAPMTEHAVKLLIGQLQKLSSDPDEQIEILRQSIVNGWKGIFSLK,-0.183
26,HMNPMRYLVVPSQETETWKEYLVSKEWLERKYRIETEGDNRAIPLSNLFPKIVPIELSNLEIIEKEAFS,-0.24

row,Sequence,soluble fraction (log2)
1,HMDTSAHEVLSAIRSIIEDEDKRHPLSDEAITSRLSQQGYDIARRTVAKYRERLGLPVARLRRE,-0.0213
2,HMGVSLNELAYRRFKQALVTLSYKPGEYLNTAQVMNDLDMGRTPINQAIHRLANEGLLQVIPRKGVMVS,-1.79
3,HMADKSLLELPGLDGDKVSALVTAGVRNVNDLADLATDELVEKTGFDEKTAADLIIAARAVVY,0.331
4,HMGISVEVPDLKNMSVAEAGSLLKNSGLSYAVVDSDYVKTISPGKILDQNPGRGLRVKKGRIVYLTINSL,-1.37
5,HMNREMLVHAIGQLKEKYASALELKYWHGFTEREIAAFLNISEKAANSRLVRGRVMLRKLLE,0.131
6,HMKFYKMIDESDEKIENPEIMIFQIIELVSSTTYSAIINKEPVDVETLKPYLYQTIRTIIINHQS,0.144
7,HMRADRLISMLMLLQARGKITAEELAVELGVSQRTIYRDIEALSFAGVPVYAERGPGGGIGLLEPY,-1.7
8,HMQEDQKTSIFDIEGVEKGVASVLSSIKVEIVSDLLEADMDDILKSGKISEDDLDGVYEAVQNFVER,0.42
9,HMKTLELIAAIRKRIAGGYAGADGRLPNIGEIAKDFSVSPMTAQKAVRALVEAGVLTSTRRKGVFLKQPAS,-1.01
10,HMKTPRKVFTVLIRNTEYDVYDIDGKEHQGYNDTPKTWWLYHSERLPEGMIPPIDSDSWKPYSVGT,-0.831
11,HMINKQPKDYEYFLEKWHFTQTEKHQLHNLILKLNIRYPNKDFLKITENLDNGKLVLKKLEERLSKT,-1.05
12,HMGPNSVPDLRGKSLRQAMKMVNDLELKAIFEGEGIVVGQVPAPGKPVPETKILKITLSLEPY,-0.109
13,HMEITTEDIAAQVASWIVRLSEDLTSTDRAALQIEFEQWQQTDSRRAEIAHKMLSLIGQAEQLRKT,-0.207
14,HMNKPTFNIFNNRLTFPFKGDITIYSLDGKRVFSAYNESSVNLSFLNRGSYISEFNNSRSVLIL,-1.39
15,HMNMKVGPVPANVVPANIKAHVSNNYSKYQIVQMMQNDKGYQVKLSNGTDLYYDKDGNILKTS,0.196
16,HMTNISDYILEEYYKNVYPNDLNTKRIVIPNKYEEYAGKYTYITIARMVTYEHDAKKALKVLHQQAT,-0.287
17,HMSNLVEVPAVIGRMKEDAITMLISAGLEPAVTYDEYPLVKENLVADQSVAPGQKVEKGSFVTITVSRS,-0.0475
18,HMKPNEYVSGETFPYLGKNYRLKVLHGSENSVRLKGGYFITTISNRDSQLSTVKSLLEDWYQTHADK,0.0439
19,HMADLNQTDIDSITKSVGGVEQYKSLMDWAGKTLSQDAIDSFDDLVNTGNKGSIQLAVNGLVAQYQNDN,0.0325
20,HMGPVRDLGLLESAAHRPTTALWGRDVYATIEKKAAALLDSLVRDRPLADGNKRLGWLAALV,0.0437
21,HMGAEIRDKVRAALAGLNPRAAEIFVMRYFDGYGNREIARLLNTSWSTIAVTLHRTRAKLQKELK,-0.101
22,HMKRITAVISQKKGRDYYYIIVSYYLSNGKRVQRWIKTEFPINGNNKRKLEQKRIEVLQEWQDKLV,-1.3
23,HMDYGSISFINWSIEVLSVIKTRLDRGDKIIDEVSGEKYTASSFEKFVRKNFSSYIFSQVYAEDHKK,-2.55
24,HMEKLPRYILPGVPKVKSINISSALDGLVQDYSREFNISQKDIFQIALVEFFKKYGYHNAVKAVL,-0.314
